Results published in the nanobody polyreactivity screen of Harvey et al. (2022).

Assay: yeast display, Sf9 membrane polyspecificity reagent, FACS + sequencing; frameworks hold sequencing errors
Method in brief: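 Using colony PCR, genes from sorted yeast display clones were amplified, then sequenced on MiSeq at 2 × 250 and filtered by CDR length. The clones had been stained with 10% biotinylated, detergent-solubilized Sf9 membrane reagent for 1 hour at 4 °C and sorted by FACS into low and high (top ~1%) gates on anti-HA and streptavidin fluorescence. Polyreactivity labels come from the gate of origin.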

| Sequence | polyreactivity (PSR sort gate) |
| --- | --- |
| QVQLVESLGGLLHAGGSLRLSCGASGSIFGSNALGWYRQAPGKERELVAAINYSGGSTTYADSVKGRFTISRDNAKNTVYLQMTSLKPEDTAVYYCNADVLYQFDEGVWSDYWGQGTQVTVSS | low polyreactivity |
| QVQLVESLGGLVQAGGSLRLSCAASGFTFGAYAMGLYRPAPGKERELVATMDWRGSSTYYADSVKGRFTISRDNAKNTVYLQINCLKPVDTAVYYCAARLARGSYAYEYWGHGTQVTVSS | low polyreactivity |
| QVQLVESRAVLVQAGGSLRLSCAASGSIFYVYAMGWYRQAPGKERELVAAISSSSDSTYADSVKGRFTISRDNAKNTVYLQMNSLKPEDTAVYYCATAWYYGIVRGGLPYDYWGHGTQVTVSS | low polyreactivity |
| QVQLVESRGAIVQAGASLRLSSAASGFTFWDYAMGCYRQAPGKERELVAAISSRGTRTYYADSVKGRFTISRDNAKNTVYLQMNSLKPEDTAVYYCATASPDPDYIHNYWGQGTQVTVSS | high polyreactivity |
| QVQLVESRGALVQAGASLRLSCAASALTFVKNVMGWYRQAPGKERELVAAISSGGSTYADSVKGRFTISRDNAKNTVYLQMNSLKPEDTAVYYCNADFRARNYHYYPRRFKYYYWGQGTQVTVSS | high polyreactivity |
| QVQLVESRGALVQAGGSLRLSCAATGSSFNRYAMRWYRQAPRKERELVAAISSGRTTNYADSVKGRFTISRDNAKNTVYLQMNSLKPEDTAVYYCNRKFRYSSHTNYYYWGQGTQVTVSS | high polyreactivity |
| QVQLVESRGCLVQAGGSHRLSCAASGSISDVNPMGWYRQARGNERELFAAMTSRRGGTNYADSVKGRFTISRDYAKNTVYLQMNSLNPEDTAVYYCAVYVSTKASKQGYGPGDYWGQGTQVTVSS | low polyreactivity |
| QVQLVESRGCLVQAGVSLRLSCSASGSIFKIYAMGWYRQAPGKERELVATITGIADSTYYADSVKGRFTISRDNAKNTVYLLMNSLKPDDNAVYYCAADNYVADYDYWGQGTQVTVSS | low polyreactivity |
| QVQLVESRGGIVQAGGSLRLSCAASGRIFSRYAMGWSRQAPGKEREMVAAISWSGGSTFYADSVKGRFTISRDNAKNTVYLQMNSLKPEDTAVYDCAAYPRFYGGKDGEYGYWGQGTQVTVSS | high polyreactivity |
| QVQLVESRGGIVQAGGSLRLSCAASGSIFTGNAMGWYRQAPGKERELVAAITSSAGSTYYADSVKGRFTISRDNAQYTVYLQMNSLKPEDTAVYYCAKDYYSKHFPNYDYWGQGTQVTVSS | low polyreactivity |
| QVQLVESRGGLDQAGGSLRLSCAASGSIFNAYVMGWYRQAPGKERELVAAISRSGGRTYYADSVKGRFTISRDNAKNTVYLQMNSLKPEDTAVYYCAASTIWHYDSWGQGTQVTVSS | high polyreactivity |
| QVQLVESRGGLLQAGGSLRLSCAASGFTFRQYTMGWYRQAPGKERELVAGITSSGTRTYYADSVKGRFTISRDNAKNTVYLQMNSLKPEDTAVYYCATYSRWDYGYWGQGTQVTVSS | high polyreactivity |
| QVQLVESRGGLVQAAGSLRLSCAASGGTFDINAMGWYRQAHGKEREFVAAISSYDDGTYYADSVKGRFTISRDNAKNTVYLQMNSLKPEDTAVYYCAAEGYYDYLYRHYYWGQGTLVTVSS | low polyreactivity |
| QVQLVESRGGLVQAGGSLRLICAASANNYRYAMGWYRQAPAKEREFVAAISRGGSTFYADSVKGRFTISRDNAKNTVYEQMNRLKPEDSAVFYCDKERYNVYYYSGQGTQVTVSS | high polyreactivity |
| QVQLVESRGGLVQAGGSLRLISAASGSSFLSYAMGWYRQAPGKERELVAAITGSGGNTYYADSVKGRFTISRDNAKNTVYLQMNSLIPEDTAVYYCAARAPTWAGTYGYWGQGTQVTVSS | high polyreactivity |
| QVQLVESRGGLVQAGGSLRLSCAACGLIFTRNAMGWYSAAPGKERELVAAISRSGGTTYYADSVKGRFTISRDNAKNTVYLQMNSLKPEDTAVYYCAAGSWWVIGGSVSYWYNYWGQGTQVTVSS | high polyreactivity |

| Sequence | polyreactivity (PSR sort gate) |
| --- | --- |
| QVQLVESRGGLVQAGGSLRLSCAASGFIFLGNAMGWYRQAPGKERELVASISRGGSTNYADSVKGRFTISRDNAKNTVYLQMNSLKPEDTAVYYCAADLSDKFGYWGQGTQVTVSS | low polyreactivity |
| QVQLVESRGGLVQAGGSLRLSCAASGFIFLPYAMGWYRQAPGKERELVATINSGDSTYADSVKGRFTISRDNAKNTVYLQMNSLKPEDTAVNYCNAYWLVVPVDLDYWGQGTQVTVSS | low polyreactivity |
| QVQLVESRGGLVQAGGSLRLSCAASGFSFAYYAMGWYTQAPGIERELVAGISAGYGSTYYADSVKGRFTISRDNAKNTVYLQMNSLKPEDTAVYYCAADTSSTSINGDIYDYEYWGQGTQVTVSS | low polyreactivity |
| QVQLVESRGGLVQAGGSLRLSCAASGFTFWFYAMGWYRQAPGKERELVAAISNAGGTNYADSVKGRFTISRDNAKYTVYLQMNSLKPEDTAVYYCAAAWPHWGDLGGTEWYLFYYWGQGTQVTVSS | low polyreactivity |
| QVQLVESRGGLVQAGGSLRLSCAASGITFGRNTMGWYRQAPGKERELVAAIDSGGNTYAESVKGRFTISRDNAKKTVYFQMNSLKPEDTAVYYCAVDGGEFSSYGYWGQGSQVTVSS | low polyreactivity |
| QVQLVESRGGLVQAGGSLRLSCAASGITFILYAMGCYRQAAWKERELVASITSGGSTDYADSVKERFTISGDNAKNTVYLQMNSLKPEDTAVYYCNAAARGSSFDYWGQGTQVTVSS | low polyreactivity |
| QVQLVESRGGLVQAGGSLRLSCAASGITFYVNDMGWYRQEPGTERELVAAISYRGGSTYYADSVKGRFTISRDNAKNTVYLQMNSLKPEDTAVYYCAADYNYWSPHRDDYWGQGTQVTVSS | low polyreactivity |
| QVQLVESRGGLVQAGGSLRLSCAASGRTFGRYAMGWYRQAPGKERELVAAINRGGSTKYADSVKGRFTISRDNAKNTVYLQMNSLKPEDTAVYYCAKDRHPALHYDYWGQGTQVTVSS | low polyreactivity |
| QVQLVESRGGLVQAGGSLRLSCAASGRTFVPYAMGWYIQAPGKERELVAAISYSGDSTYYADSVKGRFTISRDNAKNTVYLQLNSLKPEDTAVYYCAAPSYFRMGYWGQGTQVTVSS | low polyreactivity |
| QVQLVESRGGLVQAGGSLRLSCAASGSIFIYNAMGWYRQAPGKERELVAANSSSGGSTYYADSVKGRFTNSRDNEKNTVYLQMNSQNPEDTAVYYCAARTYYVRGLRGRPGMDYWGQGTQVTVSS | low polyreactivity |
| QVQLVESRGGLVQAGGSLRLSCAASGSIFSWYTMGWSRQAPGKERELVARITTSGGTPRYADSVKGRFTISRDNAKNTVYLQMNSLKPEDTAVYYCAADRSPYWRGYGRYNYWGQGTQVTVSS | high polyreactivity |
| QVQLVESRGGLVQAGGSLRLSCAASGSTFPGYAMGWYRQPPGKERELVAAINWRGASTYYADSVKGRFTMSRDNAKNTVYLQMNSLKPEDTAVYYCAGKYNHVTDEYEYWGQGTQVTVSS | high polyreactivity |
| QVQLVESRGGLVQAGGSLRLSCAASGSTFVRNAMGWYRQAPGKERELVAAISRSGGRTYYADSVMGRFTISRDNAKNTVYLQMNSLKPDDTAVYYCAKKRSKAISFDYWGQGTQVTVSS | high polyreactivity |
| QVQLVESRGGLVQAGGSLRLSCAASRFYTMGWYRQAPGKERELVAAISWSGGDTYYADSVKGRFTISRDNAKNTVYLQMNSLKPDDTAVYYCAKKTIGSYVHEPYYYWGQGTQVTVSS | low polyreactivity |
| QVQLVESRGGLVQAGGSLRLSCAASVSTFSDYSIGWYRQATGKERELVAGITGGGGTYYADSVKGRFTISRDNAKNTVYLQMNSLKPEDTAVYYCAAGRRHGFGYWGQGTQVTVSS | low polyreactivity |
| QVQLVESRGGLVQAGGSLRLSCPDSGYIFFTNSMGWYRQEPGKERELVAAISSAGRTKYADSVKGRFTISRDNAKNTVYLQMNSLKPEDTAVYYCNKAFYYLWGTGYDYWGQGTQVTVSS | low polyreactivity |
